Reference: patent US10017787B2, “Production of alkenes from 3-hydroxycarboxylic acids via 3-hydroxycarboxyl-nucleotidylic acids” (Global Bioenergies, priority 2013, dated 2018)

B1: AMP-dependent synthetase/ligase from Marinobacter aquaeolei (Marinobacter nauticus VT8) (protein)
chain: MTSIFDQGLEPRDANYAVQSPIDFIERTASVYPDYPAIIHGAIRRTWAETYDRCLRLASALKGRGIGRGDTVAVMLPNIPAMVECHFGIPMIGAVLNTLNVRLDAEAIAFMLEHGEAKVVIADREFGQVIKDAVRHLEHKPLVIDVDDPEYGEGVQVSDLDYEAFLQEGDPQFQWSFPDNEWDAISLNYTSGTTGNPKGVVYHHRGAYINALGNQTVWSMDMHPVYLWTLPMFHCNGWCFPWTITAMAGTHVCLRRVDPEKILQLIHDHQVTHMCGAPIVLNALLNASPEAKAGIDHEVKSMTAGAAPPAQVIGSIEEMGIKVTHVYGLTEVYGPVTVCAWKSEWDELPLHDRAKIKARQGVRYHTLGGTMVADPNTMQPVPKDGKTIGEIFLRGNTVMKGYLKNPTATEEAFRGGWFHTGDLAVWHEDGYMEIKDRLKDIIISGGENISTIEVEDTLYRHPAVLEAAVVARPDEKWGETPCAFITLKPEAGDVSEDDIINFCREHLARFKVPKTVVFTELPKTSTGKIQKFVLRDQAKDLN
B2: AMP-dependent synthetase/ligase from Burkholderia sp.: AMP-dependent synthetase and ligase of Burkholderia sp., SEQ ID NO: 4, Uniprot R4WRJ4 (protein)
chain: MTHSEEIMTTPGIYDEGLPKTAANFAVMTPLTFIERAASVYPNRPAVVHGDVRRTWSETYARTRRLASALAARGIGVGDTVAVMLPNTPEMVEAHFGVPMTGAVLNALNTRLDAATLAFMLTHGEAKAVLVDREFSDVMRRALESVPQKLLVIDVDDSQYAGAGERIGEIEYEALLASGDPAYEWTPPSDEWNAICLNYTSGTTGNPKGVVYHHRGAYTNAVSNILEWDMPAHAVYLWTLPMFHCNGWCFPWTIAARAGVNVCLRRIDAKTVFDLIRNEGVTHYCGAPIVQNMLVNAPDELKAGIAQKVNAMVAGAAPPAAMIEGMERMGFQLTHVYGLTEVYGPATVCAHQAEWSELDIGERARLNARQGVRYHLQDAVTVRDPDTMQLVPPDGETIGEIMFRGNIAMKGYLKNAAATEEAFRGGWFHTGDLAVAYPDGYVRIKDRSKDIIISGGENISSIEVEDVLYRHPAVLAVAVVAKPDARWGETPCAFVELKTGVHVSGEELIAHCKQHLAGFKVPRAIEFCELPKTSTGKIQKFELRKRAGSVTAIDV
modifications: Burkholderia sp. RPE64
B3: acyl-CoA synthase from M. algicola: acyl-CoA synthetase from Marinobacter algicola, SEQ ID NO: 2, Uniprot A6EZ54 (protein)
chain: MNSIFDKGLEPTDANNATLTPLDFLARTASVYPEYPAVIHGATRRNWQQTYERCRRLASALADRGVGKGDTVAAMLPNIPPMLECHFGIPMLGAVLNALNTRLDAKAIAFMLEHGEAKVLIADREFGDVINEAVGMLDNPPQVIDVNDPEFSGAGTQVSDLDYDAFVASGDPAFDWQMPADEWDAISLCYTSGTTGNPKGVVYHHRGAYENAMGNQAVWSMGMHPVYLWTLPMFHCNGWCFPWTITAFAGTHVCLRKVEPEKILQLISEHKVSHMCGAPIVLNTLLGASEAAKSSFSHTVQAMTAGAAPPAKVIEAIENMGFRVTHVYGLTEVYGPVTVCAWKSEWDDLPVEDRARIKARQGVRYHTLAGMMVGDPETMEAVPKDGNTIGEIFLRGNTVMKGYLKNPKATEEAFRGGWFHTGDLAVWHADGYAEIKDRLKDIIISGGENISTIEVEDVLYRHPDILEAAVVARPDEKWGETPCAFVTLKPEAGEVSEDDIIAFCRERMAKFKVPKTIVFSELPKTSTGKIQKFVLRDDAKKL
modifications: Marinobacter algicola DG893

Key:
[1] = substrate: CC(O)CC(=O)O; experiment: purified protein, by the assay type; settings: other: 0-10 mM 3-hydroxycarboxylate, 2 mM ATP, 0.1 mg/ml enzyme, pH 7.5
[2] = substrate: CC(C)(O)CC(=O)O; experiment: purified protein, by the assay type; settings: other: 0-10 mM 3-hydroxycarboxylate, 2 mM ATP, 0.1 mg/ml enzyme, pH 7.5
[3] = substrate: CC[C@@H](O)CC(=O)O; experiment: Kinetic parameters of adenylation of 3-hydroxycarboxylates, continuous spectrophotometric diphosphate release assay; assay type: biochemical, Marinobacter aquaeolei; settings: other: 0-10 mM 3-hydroxycarboxylate, 2 mM ATP, 0.1 mg/ml enzyme, pH 7.5
Description: (§1) The genes coding for the adenylate-forming enzymes were synthesized and the corresponding enzymes were further produced according to the procedure described in Example 1. 3-hydroxypropionic acid (TCI) stock solution was prepared in water with the pH adjusted to 7.5 with 1 M NaOH. The release of diphosphate which is associated with 3-hydroxypropionyl-adenylate formation from 3-hydroxypropionate was quantified using the EnzCheck® Pyrophosphatase Assay Kit (E6645, Life Technologies).
(§2) In this assay, diphosphate was hydrolyzed to inorganic phosphate by inorganic pyrophosphatase and phosphate production coupled to phosphorolysis of the 2-amino-6-mercapto-7-methylpurine ribonucleoside (MESG), catalyzed by the enzyme purine nucleoside phosphorylase (PNP). The chromophoric product, 2-amino-6-mercapto-7-methylpurine, was monitored by absorbance at 360 nm (FIG. 9).
(§3) Kinetic parameters were determined by using the spectrophotometric assay described in Example 2. Reaction mixture for the assay of adenylation activity contained:
(§4) 0-10 mM 3-hydroxycarboxylate
(§5) 0.1 mg/ml of purified AMP-dependent synthetase/ligase from M. aquaeolei
(§6) 2-amino-6-mercapto-7-methylpurine ribonucleoside (MESG), purine nucleoside phosphorylase (PNP) and inorganic pyrophosphatase were added to the reaction mix according to the procedure described in the EnzCheck® Pyrophosphatase Assay Kit.

[4] = substrate: O=C(O)CCO; experiment: as above; assay type: biochemical, Marinobacter aquaeolei; settings: other: 0-10 mM 3-hydroxycarboxylate, 2 mM ATP, 0.1 mg/ml enzyme, pH 7.5
Description: as §1, §2, §3, §4, §5, §6

[5] = substrate: C=CC(O)CC(=O)O; experiment: as above; assay type: biochemical, Marinobacter aquaeolei; settings: other: 0-10 mM 3-hydroxycarboxylate, 2 mM ATP, 0.1 mg/ml enzyme, pH 7.5
Description: as §1, §2, §3, §4, §5, §6

3-hydroxyisovalerate = experiment: Isobutene production from 3-hydroxyisovalerate, M. aquaeolei enzyme and OleC proteins, GC-FID; assay type: biochemical; settings: 50 mM 3-hydroxyisovalerate, 10 mM ATP, 0.6 mg each enzyme in 0.3 ml, 18 hours at 37° C.
Description: The studied reaction was carried out under the following conditions
Reaction volume was 0.3 ml
(§7) 0.6 mg of AMP-dependent synthetase/ligase from M. aquaeolei and 0.6 mg of OleC protein were added to 0.3 ml of reaction mixture. A reaction mixture containing only 0.6 mg of AMP-dependent synthetase/ligase from M. aquaeolei was used as reference. The assays were incubated in 2 ml sealed vials (Interchim) for 18 hours at 37° C. with shaking. Isobutene production was analyzed by Gas Chromatography (GC) using Bruker 450-GC gas chromatograph equipped with Flame Ionization Detector (FID). Nitrogen was used as carrier gas with a flow rate of 6 ml/min. Volatile compounds were chromatographically separated on GS-Alumina column (30 m×0.53 mm ID) (Agilent) using an isothermal mode at 130° C. The enzymatic reaction product were identified by comparison with standard of isobutene (Sigma-Aldrich), the retention time of isobutene in these conditions was 2.40 min.

(R,S)-3-hydroxybutyrate [6] = experiment: Propylene production from 3-hydroxybutyrate, M. aquaeolei enzyme and OleC proteins, GC-FID; assay type: biochemical; settings: 50 mM (R,S)-3-hydroxybutyrate, 10 mM ATP, 2 mg/ml each enzyme, 18 hours at 37° C.
Description: The studied enzymes were produced and purified according to the procedure described in Example 1. The studied reaction was carried out under the following conditions
2 mg/ml purified AMP-dependent synthetase/ligase from M. aquaeolei
2 mg/ml purified OleC protein from Shewanella amazonensis or from Chloroflexus aurantiacus
Reaction volume was 0.3 ml.
For the no enzymes control, buffer was used in place of enzymes.
Controls reactions without ATP were realized in parallel.
as §7, with “The” for “0.6 mg of AMP-dependent synthetase/ligase from M. aquaeolei and 0.6 mg of OleC protein were added to 0.3 ml of”, “mixtures” for “mixture. A reaction mixture containing only 0.6 mg of AMP-dependent synthetase/ligase from M. aquaeolei was used as reference. The assays”, “Propylene” for “Isobutene”, “propylene” for “isobutene”, “1.57” for “2.40”

(R,S)-3-hydroxybutyrate [7] = experiment: Adenylation of 3-hydroxybutyrate with ATP or ADP as co-substrates, spectrophotometric assay; assay type: biochemical; settings: 5 mM (R,S)-3-hydroxybutyrate, 0-3.2 mM ATP or ADP, 0.1 mg/ml enzyme (FIGS. 15 and 16)
Description: Spectrophotometric assay was performed according to the procedure described in Example 2. The specificity of acyl-CoA synthase from M. algicola and AMP-dependent synthetase/ligase from Burkholderia sp. with respect to co-substrates was analyzed. Standard reaction contained:
0.1 mg/ml of purified enzyme
2-amino-6-mercapto-7-methylpurine ribonucleoside (MESG), purine nucleoside phosphorylase (PNP) and inorganic pyrophosphatase were added to the reaction mix according to the procedure described in the EnzCheck® Pyrophosphatase Assay Kit. A reaction mixture without inorganic pyrophosphatase was used for assays with ADP as co-substrate. Control assays were performed in which either no enzyme was added, or no 3-hydroxybutyrate was added. Each assay was started with the addition of co-substrate (ATP or ADP). Each sample was continuously monitored for the increase of 2-amino-6-mercapto-7-methylpurine at 360 nm on a SpectraMax Plus 384 UV/Vis Microplate Reader (Molecular Devices).

Row | Molecule | Km [1] [mM] | kcat [1] [s⁻¹] | Km [2] [mM] | kcat [2] [s⁻¹] | Km [3] [mM] | kcat [3] [s⁻¹] | Km [4] [mM] | kcat [4] [s⁻¹] | Km [5] [mM] | kcat [5] [s⁻¹] | Isobutene peak area (3-hydroxyisovalerate) [arbitrary units] | Propylene peak area ((R,S)-3-hydroxybutyrate [6]) [arbitrary units] | formation of 3-hydroxybutyryl-adenylate with ATP or ADP as co-substrate ((R,S)-3-hydroxybutyrate [7])
1 | B1 | 2 | 0.03 | 10 | 0.007 | 4 | 0.012 | 5 | 0.04 | 3 | 0.023 | 414 | 0 | 
2 | B2 |  |  |  |  |  |  |  |  |  |  |  |  | able to catalyze the formation of 3-hydroxybutyryl-adenylate by using ATP or ADP as co-substrate
3 | B3 |  |  |  |  |  |  |  |  |  |  |  |  | able to catalyze the formation of 3-hydroxybutyryl-adenylate by using ATP or ADP as co-substrate
